The source of these data is PMC5320943 (Structure (London, England : 1993), 2016).

For experiment [1], the target named is T1, wild-type intermedilysin (ILY^wt) (Streptococcus intermedius, UniProt Q9LCB8 34-532).
T1 sequence: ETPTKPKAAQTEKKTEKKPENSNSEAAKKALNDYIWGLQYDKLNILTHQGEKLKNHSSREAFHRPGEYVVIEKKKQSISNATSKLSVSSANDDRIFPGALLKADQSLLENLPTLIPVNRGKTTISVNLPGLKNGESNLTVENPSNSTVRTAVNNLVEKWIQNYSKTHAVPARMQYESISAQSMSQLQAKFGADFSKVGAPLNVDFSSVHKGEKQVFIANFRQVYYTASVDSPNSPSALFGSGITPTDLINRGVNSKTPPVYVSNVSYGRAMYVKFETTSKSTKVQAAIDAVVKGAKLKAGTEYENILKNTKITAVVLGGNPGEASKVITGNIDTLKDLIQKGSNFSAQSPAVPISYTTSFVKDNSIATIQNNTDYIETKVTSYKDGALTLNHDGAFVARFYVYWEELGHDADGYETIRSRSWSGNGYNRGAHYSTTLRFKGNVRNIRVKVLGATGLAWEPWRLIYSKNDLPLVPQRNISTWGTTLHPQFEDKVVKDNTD
The experiment can be described thus: MST.

The target of experiment [2] is wild-type vaginolysin (VLY^wt) (Gardnerella vaginalis, UniProt B2YGA4 31-516). The experiment can be described thus: MST.

B1: CD59 mutant D22A (CD59^D22A) (receptor, human)
chain: LQCYNCPNPTADCKTAVNCSSAFDACLITKAGLQVYNKCWKFEHCNFNDVTTRLRENELTYYCCKKDLCNFNEQLEN
modifications: Dylight 650 label (in the microscale thermophoresis only)
As to B1, the Kd is 367 nM in experiment [1] and 779 nM in experiment [2].
